# In the domain aggregation screens of Martell et al. (2025):
# Test: soluble fraction after stress (log2 fold change); higher = more stays soluble; pooled small domains, quantitative proteomics
# Conditions: stress: pH 4
# Procedure, shortened: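 Pooled custom libraries of small protein domains were subjected to pH 4 and measured by high-throughput quantitative proteomics. The log2 fold change in soluble amount per domain is reported, higher values meaning more remained soluble. This is used as a measure of aggregation propensity.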
row,Sequence,soluble fraction (log2)
1,HMTQTGEVIRWDAERGFGFIATADGRRHVFFHVRDFRGGAAPGVGLRVGFEEIQVGGKGPRAMDVRPL,-0.491
2,HMTRDGMTKEAFDSLLEDIMNILLDNGLKATTMGSIAKSLKMSKRTLYEIFSSKSQMVEEAIIASHTKMM,-0.00738
3,HMTREAILDTAEELLQRRGYNAFSYHHIAVQLGIRNAAIHYHFPAKEDLGIELVSRFRIRLAE,-0.238
4,HMTRLSSREAQVISLVRDGMTNQQIAERLELSPLTIKNHVQNILRKLDVSNRAQAVAKAVKARLI,0.00472
5,HMTRRGPLTEGDRVQVRDPKGRFHQVILVRGGRFQSNRGGFNHDDVIGRPDGQVIITDEGRQFQIL,0.0981
6,HMTRYEQLAAQIRQQIEDNIWQSGDRLPSLRDTVKQSGLSLMTVLQSYQLLESQGWITARPQSGYYVAHR,-0.169
7,HMTSGTLTLTQDTPVYTEPNKDGGVAYVQPQGDIQWDKYIFANGDNWYSFVQKNRDQEVRFYIAYSDVG,-0.623
8,HMTSHSFVITEEVGQRLDRFISDQLDTVSRTMIQKHIRSGAVVVNGKQVKSNYLLVLNDRINIALK,-1.22
9,HMTSISMDEKVVLGWHQVTTGAANSGMDKVVSNTSGLNVISPTWFKLSDNKGNYISIASKDYVDAAHKKGL,-0.317
10,HMTSKTLSADGGENTRLDKFLSNHLPEISRTKIQKMINDGLVYVNQNYAKASLVLDGTELISYTIPD,0.263
11,HMTSLTDDELSVVMLVREREISFDEITSETGFDAARLNSVLTMLKIKGIIDETTGKHYRISGGA,-0.492
12,HMTSLVRTSNLDGFEPLARSIGVDPVMELMRFGIPPDALIRENMFISFIGFIRLLEHTALAG,0.206
13,HMTSMYYLNKAVKEGNAKAIRQLLSAGININVRKRETSTPLDFAIKYKQTEIADLLRKHGGKTAEELKAEE,0.0997
14,HMTSNEKARNAASAERRADIVAAARELYEEQGLSKTSVQDITNRMGVARSLFYHYFPDKEAVTSAVLDDYV,-0.102
15,HMTSPELIELGERIRKRRQEMNLSQEALAEKAGISINTVSRVEGGQTAMSIEIFRKMIEILETDANGL,-0.804
16,HMTSRIHDYWTSPGQPGYAKIGWGTAGDFRRAKALIGEKIAANSPEDMRYLNQIIAQWHFDALGYWPGDH,-1.08
17,HMTSRLLTPRQRYVFDTAMKEGFYDVPRRITLTELASVLDVAKSTLSAQLHRIESTVHHAYADDIRRRS,0.0724
18,HMTSSQLNIEELERRMMMHLEQNGFITRSIYTNLTGRLKWKATEDLKIFVEKGLIRKMGRGNQMYYVKVE,-0.895
19,HMTSSQRDSILEFLKTRKDHPTADVVYMNVRKSFPNISLGTVYRNLTLLSDIGQIAKIRVGDGVDHFDADT,-0.073
20,HMTSSSGTITADWLNVRSGAGTNFSRLGSIAGGTRLTVISVHGEWYKITASFEGEIRTGYVHSQYVQMDGE,-1.59
21,HMTSTEQQIEQFIGTLVSLGGSAGNQRLLEALGWQDSIYQRVKQQLIDDGRIRPGRGRGGSVVLAE,-0.302
22,HMTSVAGIERFLASGAIKGMGAATAKLIVEHFGADTLNMLDMYPERLTEIKGIGPKKATAIIEGYRELS,-0.595
23,HMTSVMAWRLITPIPQHGIIRSSQVQLQKHAPNSLKFLDVDSSPVGKQVKHGIAAGHWLSKDDFTE,≥ 0.43

row,Sequence,soluble fraction (log2)
1,HMTTAASIGRLVRDARKQRGLTQHELASLLSTSQSAIHRIESGNQNLSLEMINRIAQALESPLIVPGG,-0.343
2,HMTTIRQQAEVPLSAAGRRFDQALAEMFPAYSRSRLSGWIKAGAATLDGAPAAPRQLLRGGERVELDVELE,-0.316
3,HMTTKGGLVRDTVLNEFRDSEFTRREVELVLNGVASERTIRGALSEMVERGELTQVNFGISTRYRLNQ,-0.536
4,HMTTLEGIEKYLGSGMIRGIGPAYAGRLTKVFGEAVFDVIEQSPERLREVEGIGPKRVSRIVSGWAEQ,-0.707
5,HMTTLLNHLKGTRLEAGLSQQALARLAGISRQAYSALESGSSNPSTEVALRLARALKTSVDHLFSLPE,0.0864
6,HMTTQVPYTAKLININGGSVVNFRKEPGMNTTIIRTYPVGTEVTVLETGVNWSKVEIDGVTGYVSSYFL,-0.00711
7,HMTTRLLTPRQRQVFDIAIREGFYDSPRRISLTELADLLGVAKSTLSVQLQRVESTIVHTFSEEIRRRS,-0.176
8,HMTTRQREALLDYLSRHPDQPLTVREIAAGVEPDGVSLSAVYRNLAELEAAGLIRRESRPGSREAVVQYV,-0.192
9,HMTTTTTYITNTDAVNIRQQATTSSTSLGKLAKNTILSVKKKSGDWYQITYKKQTAYIHASLVDKKTAKVT,≥ 0.43
10,HMTTVDYDALRAAILQQVVSEDTTPALTTENTEIKYKFKFGLDTWVDLDGGKIAPAVSAKSYEIQISFKG,0.12
11,HMTTYVNGSWSGWNGSTVVKLTDGSVWRQAEYHYEYHYAYRPQARLERDELFVEGMSRGVRV,-0.754
12,HMTVADMQQKANVKRRNSNSHEAILDATVKLLGSSGYIDFSIEKVASQAGVGKQTIYRWWPSRADLVLEVW,0.223
13,HMTVAEVEDRMEASRVRQALDAVGEPHRTTIALAYFTGLTHTEIAQRMGVPLGTVKSRIRDGMAKMRTHLG,-0.172
14,HMTVDHDERRSMILEAFMRLAAREGLHAVSLRGVAAEAGISLRLVQYYFETKARLMQSGLTALET,-0.501
15,HMTVKKLIINEDNSGRRIDNYLLSIFNSVPRSKIYNIIRKGEVRVNSSRIKPSYRLEEGDQVRIPPNLDYT,-0.0871
16,HMTVKRNILQELLKTAFKHPEDFRPSKTFYGETGIGQKRFWALYYGHKAVTQKEYYAVADYLG,0.202
17,HMTVLDYNENVLSKVMNAAEINDSDKEAFIAFAKDYNSDDNLYLKKEELETAAGAWNARNVE,-0.552
18,HMTVLTDEIKVILISYIKENDFKKKHGNRKMMMTAQDMYDELVEKGYKISYPTVTQYVQKYRENETT,-0.0952
19,HMTVMTGSQRRKKILELMRDAKEPLSGGALGKETGVSRHVVVQDIALLRTQGYPIVATARGYIINE,≥ 0.43
20,HMTVRLSVSADGKFFWNESQVSEEELFPRLQAEAAKEPQPDLHIRGDKNVRYEFVAQAMAAAQRAGVRKI,-0.423
21,HMTVSADQTAADAVIKLINAIGTVSENSGSAISAARSGYDALTDTQKKLVTNYNKLTQAEQVFSSLPS,-0.315
22,HMTVSGNIAGDYKDYLPQKTDVINGMTVTYRMVDDAVYLASWKHAGQNHVFLFNDPVSVERAREMI,-0.965
23,HMTVSIDSLFDKFEDLQEQGLGDKTEEGQELRGLIRAFIEQEHLSVRITRSTSNQELLDMIEEAMQ,-0.551

row,Sequence,soluble fraction (log2)
1,HMTVSRRYTENEMETALKAYLATHNFISRRDMQQEFALTIYSARKWLNHFVDVGLIERIGLKNAPIYKL,0.22
2,HMTVTKYGKKILEIVSSSRSHMTAEEIFDALRQTYPTVVLATVYNNLNRLWQDDLIRKVSVEGMPDRYD,-0.0435
3,HMTVVPNIVNQPEAAGTNLLISSNLKPGNRAVQYSDTVKAGDIISQSPEPGAQATLGGKVDYVISQGPAPT,0.22
4,HMTWIAEIELRLMGNGAVTGAKIVKSTDLKDVDAAIYRAALEASPYPAPESGIGGRFTIKLKY,0.015
5,HMTYLIKFDENGRRSDTYVAEEKTQEQVTELLEKGFVLITEEDYQLLVGNVDGKEYIRNADGTYSEYT,-0.894
6,HMTYMWTTDGVNLRSEPNTDSAVVTVLGVGTQVRMIGEEDGWVKVSFNDQEGYIRADFLTTE,-0.476
7,HMTYSAFITARNKRIAEEYSVLLDSLNISNNVIYRLGSWVVEVNVSDHSRAIDEIYSYERSGRIDKV,-0.534
8,HMTYYEGYYRKNQKGFGFVIVDGRDEDIYIDAKNMNGALNNDLVVVEELKGQNGKKTEGRVVKVLKKE,-0.284
9,HMVADLSGVGDKDIIVDQFIYHEVLPKETIYSIVKSFNVTSEDLNKNNPFLRANGLRIGQVIRIPLKI,-0.224
10,HMVAEPTYGRTTDVLNIRSGPSTDDERIGQLSRGAVVTILEEKDGWYRLQRGYISADYVTQISAEEASNS,-0.546
11,HMVAEPVYGKVTEGPLNVRSAPSTDSEKVDSFSTGKVLTILETLDGWYKVEEGYVSADYVTIIDAAEAASS,-0.538
12,HMVAGHLSEKKGYYYAVLNYKDYTGKRKSKWVSTGLPVKGNKRRAEKILADIKRDFVPEEPKR,-0.0527
13,HMVAGQDPVKRQQILDGAKRVFLGVGFDAASMNDITREAGVSKGTIYVYFGSKEELFGALIDR,-0.807
14,HMVAMLDASYRGVMQTISTLLAQGNTERAYDEAVNARGQMSKQQWNNLANLIWERTGQKIDSGVSYK,-0.00781
15,HMVDEAQSLERNVLLTVLSRIGRDSRVVLTHDIAQRDNLRVGRHDGVVAVVDRLKGHPLFAHVTL,-0.0346
16,HMVDERMVTYINSLDKGNTPFLNELEKEALANYVPIIRREMQSFLKVLLQIKAPLRILEVGTAVGFSTILM,-0.354
17,HMVDGAHKQQAAVQALTPALKVLAAAPEGKKGQAIQALRAVLKQHGRWLDDATAQQVHEQLLAAGDAQGWQ,0.331
18,HMVDIGQSIRVELIREGKDSHQAVGYLRDGSMVVVNHGRKLIGSTVEVEITSIVPSSAGKVIFAEYLE,-1.05
19,HMVDIQTGQKVRIHTSQFAGKIGNITALNVKSAELPNGIRTATASILMQSNENVMLPVSNFDIIE,-0.044
20,HMVDIVLDILKIVAEKQPGNQFSQSILMQYQERGGLSKKQLEGLYGKAKRIPEIPQNKLATLEAIILR,-0.428
21,HMVDKNDLTAIDGIGPFLEKKLNDVGVFTYADIAGWDAAKIEEITQQISFFEGRIEKDDWVGQAQKLIDDQ,-0.704
22,HMVDKSYIHNQQVASDTWTVQHNLGKYPAVSVADTGNNEVYGDVRHINENTVELKFSHPFSGVAFF,-0.0737
